Residue numbers refer to the chain shown, from its start. One block for each binder: values may come before it.
Assays:
[1] = target: T1, 细胞表面CTLA-4抗原 (CTLA-4 on cells) (UniProt P16410 36-223, limits assumed); assay: cell-based or functional assay
T1 sequence (looked up): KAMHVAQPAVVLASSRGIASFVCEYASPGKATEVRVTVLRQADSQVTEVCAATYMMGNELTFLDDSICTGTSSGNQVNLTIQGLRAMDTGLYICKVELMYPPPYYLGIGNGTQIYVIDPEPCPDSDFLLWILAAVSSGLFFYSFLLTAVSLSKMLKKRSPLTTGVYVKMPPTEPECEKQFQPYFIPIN

[2] = target: T2, CTLA-4 (antigen coated on ELISA plates and immunotubes) (UniProt P16410 36-161, limits assumed); assay: ELISA, full antibody on coated CTLA-4, anti-human IgG-HRP
T2 construct: also called CTLA-4抗原; 细胞毒性T淋巴细胞相关抗原4
T2 sequence (looked up): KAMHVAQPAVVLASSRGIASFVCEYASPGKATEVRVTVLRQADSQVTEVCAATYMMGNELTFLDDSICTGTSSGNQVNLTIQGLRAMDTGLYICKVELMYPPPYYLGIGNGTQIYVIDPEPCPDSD

[3] = target: T1, 细胞表面CTLA-4抗原 (CTLA-4 on cells); assay: flow cytometry on CHO cells over-expressing CTLA-4, Alexa488 anti-human IgG Fc

混合淋巴细胞反应(MLR), CD4+ T细胞增殖 (cck8), EC50 [1]: 8.31 nM
EC50 [2]: 0.11 mg/L
EC50 [3]: 0.00895 mg/L
B1: 全抗N-2 (antibody, human IgG1, kappa, V domains shown)
VH: QVQLVESGGGVVQPGRSLRLSCAASGFTFSSIFKRWVRQAPGKGLEWVTFISYDGLDHINGDSVKGRFTISRDNSKNTLYLQMNSLRAEDTAIYYCARRYRWWGKAMDYWGQGTLVTVSS
VL: DIVMTQSPLSLPVTPGEPASISCKSSQSVIDSKGYTYLGWYLQKPGQSPQLLIYLGTQKSSGVPDRFSGSGSGTDFTLKISRVEAEDVGVYYCLQRGHIPITFGQGTKLEIKR
notes: also called 抗CTLA-4全抗体N-2

混合淋巴细胞反应(MLR), CD4+ T细胞增殖 (cck8), EC50 [1]: 7.32 nM
EC50 [2]: 0.164 mg/L
EC50 [3]: 0.00649 mg/L
B2: 全抗N-8 (antibody, human IgG1, kappa, V domains shown)
VH: B1 VH with S31G, I32F, F33S, K34I, R35C, D57L, H58F, I59L, N60I, G61A
VL: DIVMTQSPLSLPVTPGEPASISCRSSQTVFDSHGQTYLQWYLQKPGQSPQLLIYGASRQVSGVPDRFSGSGSGTDFTLKISRVEAEDVGVYYCMQVWHLPITFGQGTKLEIKR
notes: also called 抗CTLA-4全抗体N-8

混合淋巴细胞反应(MLR), CD4+ T细胞增殖 (cck8), EC50 [1]: 7.34 nM
EC50 [2]: 0.163 mg/L
EC50 [3]: 0.00709 mg/L
B3: 全抗N-1 (antibody, human IgG1, kappa, V domains shown)
VH: B1 VH with S31G, I32Y, F33N, K34G, R35N, D57N, H58D, I59V, N60K, G61A
VL: B1 VL
notes: also called 抗CTLA-4全抗体N-1

混合淋巴细胞反应(MLR), CD4+ T细胞增殖 (cck8), EC50 [1]: 14.2 nM
EC50 [2]: 0.264 mg/L
EC50 [3]: 0.00896 mg/L
B4: 全抗N-3 (antibody, human IgG1, kappa, V domains shown)
VH: B1 VH with S31G, K34S, R35S, G55S, D57K, H58Q, I59K, N60D
VL: B1 VL
notes: also called 抗CTLA-4全抗体N-3

混合淋巴细胞反应(MLR), CD4+ T细胞增殖 (cck8), EC50 [1]: 6.31 nM
EC50 [2]: 0.0865 mg/L
EC50 [3]: 0.00792 mg/L
B5: 全抗N-7 (antibody, human IgG1, kappa, V domains shown)
VH: QVQLVESGGGVVQPGRSLRLSCAASGFTFSGIYCNWVRQAPGKGLEWVTFISYDSILNVIADSVKGRFTISRDNSKNTLYLQMNSLRAEDTAIYYCARRYRWWGKAMDYWGQGTLVTVSS
VL: B2 VL
notes: also called 抗CTLA-4全抗体N-7

混合淋巴细胞反应(MLR), CD4+ T细胞增殖 (cck8), EC50 [1]: 15.4 nM
EC50 [2]: 0.0922 mg/L
EC50 [3]: 0.0111 mg/L
B6: 全抗N-4 (antibody, human IgG1, kappa, V domains shown)
VH: B1 VH with S31A, I32F, F33Y, K34N, R35P, L56V, D57Y, H58F, I59H, N60F
VL: B1 VL
notes: also called 抗CTLA-4全抗体N-4

混合淋巴细胞反应(MLR), CD4+ T细胞增殖 (cck8), EC50 [1]: 6.67 nM
EC50 [2]: 0.127 mg/L
EC50 [3]: 0.00705 mg/L
B7: 全抗N-6 (antibody, human IgG1, kappa, V domains shown)
VH: B1 VH with I32N, F33T, K34L, G55S, D57F, H58L, I59D, N60Q
VL: B2 VL
notes: also called 抗CTLA-4全抗体N-6

混合淋巴细胞反应(MLR), CD4+ T细胞增殖 (cck8), EC50 [1]: 4.95 nM
EC50 [2]: 0.0689 mg/L
EC50 [3]: 0.00612 mg/L
B8: 全抗N-5 (antibody, human IgG1, kappa, V domains shown)
VH: B1 VH with S31G, I32F, K34N, G55A, D57K, H58D, I59F, N60Y, G61A, Q112P
VL: B2 VL
notes: also called 抗CTLA-4全抗体N-5; N-5的全抗体

Source: patent CN110840830A (BEIJING DONGFANG BIOTECH CO LTD, dated 2020)
